Each block holds one substance with its values, some of them ahead of it.
Legend:
[1] = biological target: SUV420H1(1–335) (human) (UniProt Q4FZB7); experiment: MST; His-tagged SUV420H1 labelled with RED-tris-NTA (50 nM protein, 10 nM dye) kept constant; nucleosomes serially diluted from 6 μM to 45.75 pM; 20 mM HEPES pH 7.5, 50 mM NaCl, 50 mM KCl, 1 mg/mL BSA, 0.05% Tween-20, 40 μM SAM, 2 mM DTT; room temperature; triplicate
[2] = biological target: SUV420H1(1–390) K258A (human) (UniProt Q4FZB7); experiment: as above
Chain of SUV420H1(1–390) K258A (human) (Q4FZB7 1-390 K258A): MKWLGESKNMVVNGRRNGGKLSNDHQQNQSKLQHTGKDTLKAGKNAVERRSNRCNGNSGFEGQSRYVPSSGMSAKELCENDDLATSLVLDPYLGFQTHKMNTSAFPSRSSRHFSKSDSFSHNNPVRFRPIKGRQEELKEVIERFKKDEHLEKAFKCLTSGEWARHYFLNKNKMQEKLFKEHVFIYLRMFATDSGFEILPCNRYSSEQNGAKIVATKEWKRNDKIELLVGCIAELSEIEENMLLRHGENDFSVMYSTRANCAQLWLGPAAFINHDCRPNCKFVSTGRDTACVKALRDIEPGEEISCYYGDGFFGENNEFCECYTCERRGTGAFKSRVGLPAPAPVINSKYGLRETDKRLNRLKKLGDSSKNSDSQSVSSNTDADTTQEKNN

[3] = biological target: SUV420H1(1–390) R220A (human) (UniProt Q4FZB7); experiment: as above
Chain of SUV420H1(1–390) R220A (human) (Q4FZB7 1-390 R220A): as the sequence (Q4FZB7 1-390 K258A) above, with R220A, A258K counted along it

[4] = biological target: SUV420H1(1–390) R257A (human) (UniProt Q4FZB7); experiment: as above
Chain of SUV420H1(1–390) R257A (human) (Q4FZB7 1-390 R257A): as the sequence (Q4FZB7 1-390 K258A) above, with R257A, A258K counted along it

[5] = biological target: SUV420H1(1–390) R286A (human) (UniProt Q4FZB7); experiment: as above
Chain of SUV420H1(1–390) R286A (human) (Q4FZB7 1-390 R286A): as the sequence (Q4FZB7 1-390 K258A) above, with A258K, R286A counted along it

[6] = biological target: SUV420H1(1–390) R352A (human) (UniProt Q4FZB7); experiment: as above
Chain of SUV420H1(1–390) R352A (human) (Q4FZB7 1-390 R352A): as the sequence (Q4FZB7 1-390 K258A) above, with A258K, R352A counted along it

[7] = biological target: SUV420H1(1–390) R357A (human) (UniProt Q4FZB7); experiment: as above
Chain of SUV420H1(1–390) R357A (human) (Q4FZB7 1-390 R357A): as the sequence (Q4FZB7 1-390 K258A) above, with A258K, R357A counted along it

[8] = biological target: SUV420H1(1–390) R357H (human) (UniProt Q4FZB7); experiment: as above
Chain of SUV420H1(1–390) R357H (human) (Q4FZB7 1-390 R357H): as the sequence (Q4FZB7 1-390 K258A) above, with A258K, R357H counted along it

[9] = biological target: SUV420H1(1–390) S255F (human) (UniProt Q4FZB7); experiment: as above
Chain of SUV420H1(1–390) S255F (human) (Q4FZB7 1-390 S255F): as the sequence (Q4FZB7 1-390 K258A) above, with S255F, A258K counted along it

[10] = biological target: SUV420H1(1–390) S283L (human) (UniProt Q4FZB7); experiment: as above
Chain of SUV420H1(1–390) S283L (human) (Q4FZB7 1-390 S283L): as the sequence (Q4FZB7 1-390 K258A) above, with A258K, S283L counted along it

[11] = biological target: SUV420H1(1–390) Y349A (human) (UniProt Q4FZB7); experiment: as above
Chain of SUV420H1(1–390) Y349A (human) (Q4FZB7 1-390 Y349A): as the sequence (Q4FZB7 1-390 K258A) above, with A258K, Y349A counted along it

[12] = biological target: SUV420H1(1–390), wild type, with N-terminal 6× His-TEV tag (human) (UniProt Q4FZB7); experiment: as above
Chain of SUV420H1(1–390), wild type, with N-terminal 6× His-TEV tag (human) (Q4FZB7 1-390): as the sequence (Q4FZB7 1-390 K258A) above, with A258K counted along it

[13] = biological target: SUV420H1(63–390) (human) (UniProt Q4FZB7); experiment: as above
Chain of SUV420H1(63–390) (human) (Q4FZB7 63-390): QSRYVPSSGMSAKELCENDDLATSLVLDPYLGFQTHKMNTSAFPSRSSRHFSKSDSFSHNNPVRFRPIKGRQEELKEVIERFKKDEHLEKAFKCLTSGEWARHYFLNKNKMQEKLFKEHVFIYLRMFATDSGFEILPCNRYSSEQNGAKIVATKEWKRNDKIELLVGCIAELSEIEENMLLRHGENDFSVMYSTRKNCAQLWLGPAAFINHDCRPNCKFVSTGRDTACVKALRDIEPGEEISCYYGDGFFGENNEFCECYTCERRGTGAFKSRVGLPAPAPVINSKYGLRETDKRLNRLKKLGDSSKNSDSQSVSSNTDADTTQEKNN

[14] = biological target: SUV420H1(1-390) wild type (human) (UniProt Q4FZB7); experiment: MST; settings: MST: 20 mM HEPES pH 7.5, 50 mM NaCl (listed twice), 50 mM KCl, 1 mg/mL BSA, 0.05% Tween-20, 40 uM SAM, 2 mM DTT, room temperature, EMSA: 25 mM HEPES pH 7.5 …
Chain of SUV420H1(1-390) wild type (human) (Q4FZB7 1-390): as the sequence (Q4FZB7 1-390 K258A) above, with A258K counted along it

[15] = test system: SUV420H1(1-335) (human); experiment: MST; settings: histone H4 K20M; MST: 20 mM HEPES pH 7.5, 50 mM NaCl (listed twice), 50 mM KCl, 1 mg/mL BSA, 0.05% Tween-20, 40 uM SAM, 2 mM DTT, room temperature; EMSA: 25 mM HEPES pH 7.5 …
[16] = test system: SUV420H1(63-390) (human); experiment: MST; settings: histone H4 K20M; MST: 20 mM HEPES pH 7.5, 50 mM NaCl (listed twice), 50 mM KCl, 1 mg/mL BSA, 0.05% Tween-20, 40 uM SAM, 2 mM DTT, room temperature; EMSA: 25 mM HEPES pH 7.5 …

Chain of SUV420H1(1–335) (human) (Q4FZB7 1-335): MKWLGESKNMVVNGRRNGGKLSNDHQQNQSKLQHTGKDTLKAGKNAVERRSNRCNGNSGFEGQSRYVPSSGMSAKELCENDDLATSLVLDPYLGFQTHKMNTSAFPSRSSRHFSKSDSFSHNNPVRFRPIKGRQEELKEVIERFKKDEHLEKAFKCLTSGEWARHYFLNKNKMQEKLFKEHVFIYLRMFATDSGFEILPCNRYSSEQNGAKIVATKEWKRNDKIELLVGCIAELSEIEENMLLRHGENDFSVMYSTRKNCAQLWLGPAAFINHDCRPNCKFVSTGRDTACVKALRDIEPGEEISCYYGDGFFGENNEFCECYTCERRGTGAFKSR

Kd [1]: 292 nM
Kd [2]: 112 nM
Kd [3]: 93 nM
Kd [4]: 144 nM
Kd [5]: 323 nM
Kd [6]: 220 nM
Kd [7]: 213 nM
Kd [8]: 83 nM
Kd [9]: 182 nM
Kd [10]: 85 nM
Kd [11]: 108 nM
Kd [12]: 62 nM
Kd [13]: 410 nM
Substance: H2A-containing nucleosome core particle with H4K20M (from UniProt P04908 16-130; P06899 1-126; P68431 1-136) (complex)

Kd [12]: 227 nM
Substance: H2A-containing nucleosome core particle with wild-type H4 (H4K20) (from UniProt P04908 16-130; P06899 1-126; P68431 1-136; P62805 1-103) (complex)

Kd [12]: 130 nM
Substance: H2A.Z-containing nucleosome core particle with wild-type H4 (H4K20) (from UniProt P0C0S5 14-126; P06899 1-126; P68431 1-136; P62805 1-103) (complex)

Substance: NCP H2A, H4K20 (canonical)
Kd [14]: 227 nM

Substance: NCP H2A, H4K20M
Kd [15]: 292 nM
Kd ([14]; histone H4 K20M): 62 nM
Kd [16]: 410 nM

Substance: NCP H2A.Z, H4K20
Kd ([14]; histone variant H2A.Z): 130 nM
